Data as given in patent US20250270327A1.
Several values for one entry are separate records, joined by “and”; a condition that tells them apart may be missing. Identical values can stand only once. Like-named read-outs stand apart in the source and are kept apart here.

How the values were obtained:
[1] = target: HLA-E*01 on THP1 and U937 cells (human); assay: mass spectrometry of peptide recovered from immunopurified HLA-E, U937 cells
[2] = target: HLA-E*01 on THP1 and U937 cells (human); assay: mass spectrometry of peptide recovered from immunopurified HLA-E, THP1 cells
[3] = target: HLA-E*01 on THP1 and U937 cells (human)
[4] = target: HLA-A*02 on THP1 and U937 cells

| Binder | Peptide quantity (min. copies per cell) (copies per cell) [1] | Peptide quantity (min. copies per cell) (copies per cell) [2] | Peptide quantity (min. copies per cell) (copies per cell) [3] | Peptide quantity (min. copies per cell) (copies per cell) [4] |
| --- | --- | --- | --- | --- |
| VMAPRTLIL (modifications not checked) [peptide … (from the HLA-C*03:03 gene in THP1, the HLA-C*01:02 gene in U937)] | 877 | 70 | – | – |
| VMAPRTLVL (modifications not checked) [peptide … (from the HLA-A*02:01 gene)] | 586 | 155 | – | – |
| VMAPRTLLL (modifications not checked) [peptide … (from the HLA-A*03:01 and HLA-A*31:01 genes)] | – | – | 302 | – |
| VMAPRALLL (modifications not checked) [peptide … (from the HLA-C*07:01 gene)] | – | – | 35 | 0 |
| RLPAKAPLL (modifications not checked) [peptide … from Mycobacterium tuberculosis enoyl-ACP reductase (inhA)] | – | – | 52 and 22 | – |
